In PMC10545826:

Legend:
[1] = target: human FcγRIIIa (CD16a) V158 (human); test: SPR; Biacore 8K; His-tagged FcγRIIIa captured (aimed 60 RU) by anti His-tag antibody immobilised on a CM5 chip; antibody samples as analytes (360 to 22.5 nM for the trastuzumab samples); PBS with 0.005% Tween-20; global fit, 1:1 Langmuir model; measured at 21-29 °C, the temperature of Table S1 not given
[2] = target: human FcγRIIIa (CD16a) V158 (human); test: SPR; Biacore 8K; His-tagged FcγRIIIa captured (aimed 60 RU) by anti His-tag antibody on a CM5 chip; antibody samples as analytes (trastuzumab samples 360 to 22.5 nM); PBS with 0.005% Tween-20; 1:1 Langmuir global fit; temperature of the printed KD not stated (measured at 21-29 °C)
[3] = target: human FcγRIIIa (CD16a) V158 (human); test: SPR; van't Hoff analysis of the temperature dependence of KD (21, 23, 25, 27, 29 °C), parameters at 25 °C; FcγRIIIa captured by anti His-tag antibody, antibody as analyte; PBS with 0.005% Tween-20
[4] = target: human FcγRIIIa (CD16a) V158 (human); test: SPR
Target sequence in this assay (P08637 17-208 F176V): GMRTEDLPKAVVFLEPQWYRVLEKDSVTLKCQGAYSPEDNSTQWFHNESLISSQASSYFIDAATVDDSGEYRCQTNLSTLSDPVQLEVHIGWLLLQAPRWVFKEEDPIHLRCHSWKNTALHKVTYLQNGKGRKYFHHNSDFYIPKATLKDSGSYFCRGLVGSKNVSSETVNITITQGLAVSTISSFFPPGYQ

koff [1] | kon [1] | Substance | other results
0.0089 s⁻¹ | 2.46e+06 M⁻¹ s⁻¹ | divalent DOTA-conjugated trastuzumab (antibody) | 
0.0331 s⁻¹ | 540000 M⁻¹ s⁻¹ | Rituximab (Rituxan), an anti CD20 human antibody | Kd [2]: 61.4 nM
0.0281 s⁻¹ | 550000 M⁻¹ s⁻¹ | Trastuzumab (anti-HER2 humanized IgG1) (antibody) | Kd [2]: 51 nM; dH [3]: -35.9 kcal/mol
 |  | divalent DOTA-conjugated trastuzumab | Kd [4]: 3.6 nM
 |  | afucosyl rituximab | Kd [4]: 10.9 nM
0.0116 s⁻¹ | 950000 M⁻¹ s⁻¹ | monovalent DOTA-conjugated trastuzumab (antibody) | Kd [1]: 12.2 nM
0.0108 s⁻¹ | 990000 M⁻¹ s⁻¹ | afucosyl rituximab (antibody) | fold increase of affinity relative to rituximab [2]: 22 fold
